Molecular target: epidermal growth factor receptor (EGFR) (human, UniProt P00533 25-1210)
Test: cell-based or functional assay

B1: EGF4 KDEL (ligand)
chain: MNSDSECPLSHDGYCLHDGVCMYIEALDKYACNCVVGYIGERCQYRDLKWWELRPSGQAGAAASESLFVSNHAYMGLTSQLLPPLFFLLACAGNFVHGHKCDITLQEIIKTLNSLTEQKTLCTELTVTDIFAASKNTTEKETFCRAATVLRQFYSHHEKDTRCLGATAQQFHRHKQLIRFLKRLDRNLWGLAGLNSCPVKEANQSTLENFLERLKTIMREKYSKCSSEASGGPEPEGGSLAALTAHQACHLPLETFTRHRQPRGWEQLEQCGYPVQRLVALYLAARLSWNQVDQVIRNALASPGSGGDLGEAIREQPEQARLALTLAAAESERFVRQGTGNDEAGAANADVVSLTCPVAAGECAGPADSGDALLERNYPTGAEFLGDGGDVSFSTRGTQNWTVERLLQAHRQLEERGYVFVGYHGTFLEAAQSIVFGGVRARSQDLDAIWRGFYIAGDPALAYGYAQDQEPDARGRIRNGALLRVYVPRSSLPGFYRTSLTLAAPEAAGEVERLIGHPLPLRLDAITGPEEEGGRLETILGWPLAERTVVIPSAIPTDPRNVGGDLDPSSIPDKEQAISALPDYASQPGKPPKDEL
- IC50, killing of MDA-MB-231 cells (3H-thymidine uptake assay): 2 pM

From patent US20110091460A1 (REGENTS OF THE UNIVERSITY OF MINNESOTA, published 2011)
